From the supplement of paper PMC10567573

B1: TPRG1 (parent)
chain: ETIQGFWLLTKIDHWNNEKERILL

Variants of: B1
Assay: protein stability index of a GFP-peptide fusion (GPS, HEK-293T) (PSI 1-6); higher = more stable
Settings: c terminus: a fixed tail appended
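Also: lentivirally expressed fusions sorted by FACS into six bins by GFP to DsRed ratio, PSI derived from sequencing read proportions per bin multiplied by bin number.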

Protein stability index of substitutions, site by site:
L9: H 1.87 | I 3 | K 1.54 | M 2.1 | N 1.16 | P 2.7 | Q 1.65 | R 1.49 | S 2.88 | T 1.33
T10: A 3.73 | D 1.8 | E 2.91 | F 1.96 | G 2.35 | H 2.31 | I 3.71 | N 1.34 | P 1.65 | R 1.01 | S 2.49 | W 2.45 | Y 2.44
K11: A 1.85 | D 1.93 | F 3.4 | G 2.08 | H 1.76 | I 2.32 | L 1.49 | P 2.92 | R 1.54 | S 1.71 | W 2.02 | Y 4.47
I12: A 3.59 | C 2.08 | E 2.55 | G 1.13 | H 1.9 | K 2.07 | M 3.11 | N 2.83 | R 1.75 | S 2.09 | T 1.58
D13: A 3.1 | F 2.23 | I 3.03 | K 3.06 | M 1.04 | N 3.41 | P 2.19 | Q 3.45 | T 1.69 | V 2.29 | W 2.98
H14: C 1.39 | D 2.88 | E 2.51 | F 2.41 | G 1.34 | I 2.49 | L 2.25 | M 2.37 | R 4.13 | S 2.41 | V 3.16 | W 2.98
W15: C 1.56 | D 1.62 | E 2.05 | G 4.15 | H 2.16 | I 1.74 | K 2.04 | N 1.57 | P 2.2 | Q 2.09 | R 3.5 | V 2.49
N16: A 2.06 | E 1.92 | F 2.65 | G 1.75 | I 3.07 | K 4.29 | M 1.63 | P 2.99 | Q 1.77 | S 2.12 | T 3.58
N17: A 2.33 | C 2.54 | F 2.36 | I 2.46 | K 3.22 | M 3.42 | Q 4.24 | S 2.2 | T 2.14 | V 3.23 | Y 3.59
E18: A 2.8 | C 2.45 | H 2.3 | I 1.56 | K 1.71 | L 3.57 | M 2.79 | N 2.14 | S 3.54 | V 3.83 | W 2.03
K19: A 2.21 | C 2.12 | E 1.69 | G 1.76 | I 2.47 | L 2.92 | N 4.67 | P 2.82 | Q 1.52 | R 4.12 | T 1.78 | V 1.62 | W 2.92 | Y 2.27
E20: A 3.4 | D 3.18 | K 2.67 | L 3.61 | M 3.33 | N 2.53 | P 2.37 | Q 2.27
R21: C 3.09 | D 1.3 | E 3.83 | G 2.98 | H 2.66 | I 2.51 | K 1.66 | L 2.75 | P 2.58 | Q 3.52 | T 2.79
I22: A 2.62 | D 1.01 | E 2.16 | F 3.5 | G 1.89 | H 2.02 | K 2.15 | L 3.26 | M 3.17 | N 2.6 | P 1.61 | Q 3.38 | R 1.48 | V 3.42 | Y 1.63
L23: A 2.89 | E 2.38 | I 3.88 | K 1.23 | M 3.45
